Assay results: patent publication US9272016B2, “Methods to enhance RNAi oligonucleotide delivery to respiratory epithelial cells” (University of Iowa Research Foundation, priority 2012, dated 2016)

B1: EGF: human Epidermal Growth Factor (Sigma-Aldrich) (protein, UniProt P01133 23-1207, looked up)
Pro-epidermal growth factor: PQHWSCPEGTLAGNGNSTCVGPAPFLIFSHGNSIFRIDTEGTNYEQLVVDAGVSVIMDFHYNEKRIYWVDLERQLLQRVFLNGSRQERVCNIEKNVSGMAINWINEEVIWSNQQEGIITVTDMKGNNSHILLSALKYPANVAVDPVERFIFWSSEVAGSLYRADLDGVGVKALLETSEKITAVSLDVLDKRLFWIQYNREGSNSLICSCDYDGGSVHISKHPTQHNLFAMSLFGDRIFYSTWKMKTIWIANKHTGKDMVRINLHSSFVPLGELKVVHPLAQPKAEDDTWEPEQKLCKLRKGNCSSTVCGQDLQSHLCMCAEGYALSRDRKYCEDVNECAFWNHGCTLGCKNTPGSYYCTCPVGFVLLPDGKRCHQLVSCPRNVSECSHDCVLTSEGPLCFCPEGSVLERDGKTCSGCSSPDNGGCSQLCVPLSPVSWECDCFPGYDLQLDEKSCAASGPQPFLLFANSQDIRHMHFDGTDYGTLLSQQMGMVYALDHDPVENKIYFAHTALKWIERANMDGSQRERLIEEGVDVPEGLAVDWIGRRFYWTDRGKSLIGRSDLNGKRSKIITKENISQPRGIAVHPMAKRLFWTDTGINPRIESSSLQGLGRLVIASSDLIWPSGITIDFLTDKLYWCDAKQSVIEMANLDGSKRRRLTQNDVGHPFAVAVFEDYVWFSDWAMPSVMRVNKRTGKDRVRLQGSMLKPSSLVVVHPLAKPGADPCLYQNGGCEHICKKRLGTAWCSCREGFMKASDGKTCLALDGHQLLAGGEVDLKNQVTPLDILSKTRVSEDNITESQHMLVAEIMVSDQDDCAPVGCSMYARCISEGEDATCQCLKGFAGDGKLCSDIDECEMGVPVCPPASSKCINTEGGYVCRCSEGYQGDGIHCLDIDECQLGEHSCGENASCTNTEGGYTCMCAGRLSEPGLICPDSTPPPHLREDDHHYSVRNSDSECPLSHDGYCLHDGVCMYIEALDKYACNCVVGYIGERCQYRDLKWWELRHAGHGQQQKVIVVAVCVVVLVMLLLLSLWGAHYYRTQKLLSKNPKNPYEESSRDVRSRRPADTEDGMSSCPQPWFVVIKEHQDLKNGGQPVAGEDGQAADGSMQPTSWRQEPQLCGMGTEQGCWIPVSSDKGSCPQVMERSFHMPSYGTQTLEGGVEKPHSLLSANPLWQQRALDPPHQMELTQ
modifications: Pro-epidermal growth factor
B2: KGF: Keratinocyte growth factor, a member of the fibroblast growth factor family (protein, UniProt P21781 32-194, looked up)
Fibroblast growth factor 7: CNDMTPEQMATNVNCSSPERHTRSYDYMEGGDIRVRRLFCRTQWYLRIDKRGKVKGTQEMKNNYNIMEIRTVAVGIVAIKGVESEFYLAMNKEGKLYAKKECNEDCNFKELILENHYNTYASAKWTHNGGEMFVALNQKGIPVRGKKTKKEQKTAHFLPMAIT

Legend:
Type in all cases: cell-based
HPRT mRNA [1] = assay: Pretreatment of well-differentiated human airway epithelia before HPRT siRNA transfection, qPCR
Experimental: (§1) For airway epithelia that were either well or poorly differentiated, transfection was done mostly according to the manufacturer's protocol. In all cases, the apical surface of epithelia was washed twice with PBS before adding the transfection mixture to the apical surface. The mixture was then left on the cells for 24 h for all transfection reagents. For PK1 cells, reverse transfection was performed in a 48-well plate by first adding the siRNA-RNAiMAX reagent mixture onto the plate and then adding the dispersed cells (40,000 cells) on top of the mixture and allowing the cells to adhere and establish growth for 24 h. […]
(§2) Total RNA was isolated using SV96 RNA isolation kit (Promega), according to manufacturer's protocol. […] One-fifteenth of the cDNA was then amplified and analyzed by Taqman assay in the 7900 Real Time PCR System (Applied Biosystems) using synthesized primer-probe pairs (IDT, Coralville, Iowa), reaction buffer and Immolase DNA polymerase (Bioline, Taunton, Mass.). […] Absolute quantification of an mRNA target sequence within an unknown sample was determined by reference to a standard curve. […]
(§3) Wortmannin was purchased from Sigma (St. Louis, Mo.) as a ready to use solution. […]

human airway epithelia = assay: Confocal imaging of DIG-labeled siRNA uptake in human airway epithelia; conditions: EGF 100 μg/ml for 15 min, imaged 2 h after transfection, vs untreated cells (data not shown)
Experimental: The primary human airway epithelia grown at air-liquid interface were transfected with the DIG-labeled siRNA at a concentration of 250 ng/ml after complexing with Transductin. The transfection mixture was left on the apical surface for 2 h. At the end of this period, the cells were fixed in 2% formaldehyde, permeabilized in 0.2% Triton-x-100 and blocked in 1% BSA for 1 h. The cells were then stained with mouse antibody to DIG (Roche Biochemicals) for 1 h followed by either Alexa 488 labeled goat anti-mouse secondary antibody for 1 h followed by Alexa 488 labeled rabbit […] antibody (Invitrogen) for 1 or in some cases with Alexa 564 goat anti-mouse secondary antibody for 1 h. The cells were finally stained with nuclear stain, ToPro 3 for 10 minutes. The filter, containing the cells, was removed from the culture insert by cutting the edges with razor blade and then mounted onto a slide by the use of Vectashield. The slide was visualized by confocal microscopy.

HPRT mRNA [2] = assay: Pretreatment of well differentiated pig airway epithelia before HPRT siRNA transfection, qPCR; conditions: well differentiated PAE; KGF 50 ng/ml 24 h, EGTA 6 mM 30 m, LLnL 40 μM 24 hrs; then 250 nM HPRT siRNA with RNAiMAX or Transductin
Experimental: as §1, §2, §3

Molecule	decrease in HPRT mRNA levels (HPRT mRNA [1]; human airway cells, EGF 100 μg/ml for 15 min apically before siRNA-Transductin (250 nM), 3 donors)	siRNA uptake and knockdown (HPRT mRNA [1]; pretreatment of the mucosal surface with EGF (200 μg/ml), well differentiated cells, species not stated)	uptake of the DIG signal (human airway epithelia)	silencing of HPRT mRNA after pretreatment (HPRT mRNA [2])
B1	15-20%	enhanced uptake and facilitated siRNA knockdown	increased uptake	
B2				did not reduce
